A word on the Kd: it is a measure of binding affinity in units of concentration. As usually defined, the koff is the first-order rate constant of dissociation. One may read the kon as the second-order rate constant of association.

In this assay the target is T1, IMP321 (recombinant soluble human LAG-3Ig fusion protein) (human, UniProt P18627 23-450).
T1 construct: extracellular domain; also called sLAG-3Ig; LC1
T1 sequence (looked up): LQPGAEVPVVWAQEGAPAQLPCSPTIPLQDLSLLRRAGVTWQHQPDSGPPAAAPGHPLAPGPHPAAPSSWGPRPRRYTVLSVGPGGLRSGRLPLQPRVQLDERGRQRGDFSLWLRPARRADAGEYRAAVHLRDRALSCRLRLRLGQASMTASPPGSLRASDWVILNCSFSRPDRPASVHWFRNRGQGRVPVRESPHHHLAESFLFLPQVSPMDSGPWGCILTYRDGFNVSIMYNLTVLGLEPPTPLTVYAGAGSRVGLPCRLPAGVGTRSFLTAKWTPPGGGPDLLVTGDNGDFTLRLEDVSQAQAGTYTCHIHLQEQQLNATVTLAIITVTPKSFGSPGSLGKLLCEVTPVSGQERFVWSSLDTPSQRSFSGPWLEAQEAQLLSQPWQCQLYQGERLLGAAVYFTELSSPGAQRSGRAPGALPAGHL
The assay can be described thus: Biacore T200 SPR, antibody immobilized on C1 chip, IMP321 0.078-2.5 nM as analyte, 25 °C, 1:1 fit, average of three runs. The procedure: A Biacore™ surface plasmon resonance analysis was performed using the chimeric antibody Chim13E2IgG4 (comprising the chimeric heavy chain 13E2IgG4mut, and the chimeric light chain 13E2IgK, described in Example 17), or the humanized 13E2 antibody (IMP761) described in Example 18, covalently immobilized to a C1 sensor chip. The coating was performed in 10 mM sodium acetate, pH 5.0, to reach 13±1 RU. The recombinant human LAG-3Ig protein (IMP321) was then passed over the captured antibodies at 6 different concentrations, ranging from 0.078-2.5 nM, in analysis buffer (10 mM HEPES pH 7.4, 150 mM NaCl, 3 mM EDTA, 0.05% Tween 20) at 25° C., with regeneration in every cycle. The analysis was carried out on Biacore™ T200 and the data was fitted using the kinetic global fit (Langmuir 1:1) model. The kinetics parameters are recorded in Table 29, and represent the average of three runs.
On the technique in general: Surface plasmon resonance follows binding to a sensor surface in real time, without labels.

B1: chimeric 13E2-human IgG4 antibody Chim13E2IgG4 (antibody, V domains shown)
VH: QVTLKESGPGILQPSQTLSLTCSFSGFSLSTSGMGLGWIRQPSGKGLEWLTHIWWDDIKRYNPDLRSRLTISKDTSSSQIFLKIASVDTADTATYYCARIVEGSYSSSYFDVWGAGTTVTVSS
VL: DIVMTQPHKFMSTSVEDRVTITCKASQDVIFDVAWYQQKPGQSPKLLIYSASSRVSGVPDRFTGSGSGTDFTFTISSVQAEDLAVYYCQQHYSTPYTFGGGTTLEIKR
notes: The light chain is the 13E2 VL with wild-type human kappa; also called chimeric 13E2 IgG4; heavy chain 13E2IgG4mut
Take B1: the Kd came out at 0.0219 nM, the koff came to 0.00064 s⁻¹ and the kon came out at 2.9e+07 M⁻¹ s⁻¹.

B2: humanized 13E2 monoclonal antibody IMP761 (antibody, human IgG4 S228P, kappa, V domains shown)
VH: QITLKESGPTLVKPTQTLTLTCTFSGFSLSTSGMGLGWIRQPPGKTLEWLTHIWWDDIKRYNPDLRSRLSITKDTSKNQVVLTMTNMDPLDTGTYYCARIVEGSYSSSYFDVWGQGTLVTVSS
VL: DIVMTQTPSSLSASVGDRVTITCKASQDVIFDVAWYQQRPGQAPKLLIYSASSRVSGVPSRFSGSGSGTDFTLTISSLQPEDFATYYCQQHYSTPYTFGQGTRLDIKR
notes: Human IgG4 (S228P) with kappa light chain; also called humanized 13E2 IgG4; VH4/VL3
Consider B2, for which the Kd worked out at 0.0228 nM, the koff was 0.00066 s⁻¹ and the kon came to 2.9e+07 M⁻¹ s⁻¹.

The record behind these values is patent publication US20190153112A1 (IMMUTEP S A S, published 2019).
